# Data from article PMC8158037, “Staphylococcus aureus N-terminus formylated δ-toxin tends to form amyloid fibrils, while the deformylated δ-toxin tends to form functional oligomer complexes” (Virulence, 2021).
# No end group written: not given here. *: point of attachment. For = O=C*
# B1: PSMα3 (secreted by S. aureus MW2) (peptide)
# chain: MEFVAKLFKFFKDLLGKFLGNN
# notes: also called phenol-soluble modulin α3
# B2: PSMα1 (secreted by S. aureus MW2) (peptide)
# chain: MGIIAGIIKVIKSLIEQFTGK
# notes: also called phenol-soluble modulin α1
# B3: PSMα2 (secreted by S. aureus MW2) (peptide)
# chain: MGIIAGIIKFIKGLIEKFTGK
# notes: also called phenol-soluble modulin α2
# B4: PSMα4, synthetic peptide (peptide)
# chain: For-MAIVGTIIKIIKAIIDIFAK
# notes: source: synthetic peptide (Sangon Biotech, purity > 95%)
# B5: PSMα2, synthetic peptide (peptide)
# chain: For-MGIIAGIIKFIKGLIEKFTGK
# notes: as for B4
# B6: PSMα3, synthetic peptide (peptide)
# chain: For-MEFVAKLFKFFKDLLGKFLGNN
# notes: as for B4
# B7: PSMα1, synthetic peptide (peptide)
# chain: For-MGIIAGIIKVIKSLIEQFTGK
# notes: as for B4
# Target: T1, δ-toxin (secreted by S. aureus MW2 and its ΔPSMα strain) (Staphylococcus aureus MW2, N-terminal methionine formylated in part of the peptides (fδ-toxin) and deformylated in the rest (dfδ-toxin); Aggregate1 more than 50% fδ-toxin, Aggregate2 more than 85% dfδ-toxin)
# T1 construct: also called PSMγ; δ-hemolysin
# Experiment: co-IP
# Settings: both partners purified
row,Binder,binding result
1,B1,binds
2,B2,binds
3,B3,binds
4,MAIVGTIIKIIKAIIDIFAK (also called phenol-soluble modulin α4) [PSMα4 (secreted by S. aureus MW2)],binds

# Target: B3
# Experiment: co-IP
# Settings: both partners purified
row,Binder,binding result
1,B1,binds
2,B2,binds
3,MAIVGTIIKIIKAIIDIFAK (also called phenol-soluble modulin α4) [PSMα4 (secreted by S. aureus MW2)],binds

# Target: B2
# Experiment: co-IP
# Settings: both partners purified
row,Binder,binding result
1,B1,binds
2,B3,binds
3,MAIVGTIIKIIKAIIDIFAK (also called phenol-soluble modulin α4) [PSMα4 (secreted by S. aureus MW2)],binds

# Target: B1
# Experiment: co-IP
# Settings: both partners purified
row,Binder,binding result
1,B2,binds
2,B3,binds
3,MAIVGTIIKIIKAIIDIFAK (also called phenol-soluble modulin α4) [PSMα4 (secreted by S. aureus MW2)],binds

# Target: B7
# Experiment: co-IP
# Settings: both partners purified
row,Binder,binding result
1,B4,binds
2,B5,binds
3,B6,binds

# Target: T2, deformylated δ-toxin, synthetic peptide (Staphylococcus aureus)
# T2 construct: also called dfδ-toxin
# Experiment: co-IP
# Settings: both partners purified
row,Binder,binding result
1,B4,binds
2,B7,binds
3,B5,binds
4,B6,binds

# Target: B5
# Experiment: co-IP
# Settings: both partners purified
row,Binder,binding result
1,B4,binds
2,B7,binds
3,B6,binds

# Target: B6
# Experiment: co-IP
# Settings: both partners purified
row,Binder,binding result
1,B4,binds
2,B7,binds
3,B5,binds

# Target: T3, N-terminus formylated δ-toxin, synthetic peptide (Staphylococcus aureus, N-formylmethionine at the N-terminus (fM))
# T3 construct: also called fδ-toxin
# Experiment: co-IP
# Settings: both partners purified
row,Binder,binding result
1,B4,binds
2,B7,binds
3,B5,binds
4,B6,binds
